# Measured values taken from patent US20210380703A1 (RIGEL PHARMACEUTICALS, published 2021).
# Tests used:
# [1] = molecular target: T1, biotinylated goat anti-human kappa light chain; assay: ELISA, positive control
# T1 construct: Positive control of the ELISA
# Summary of the method: (§1)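 ELISA measured binding of ACVR2A-specific monoclonal antibodies to human and mouse ACVR2A. Biotinylated goat anti-human kappa light chain served as positive control and human Fc as negative control.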
# mouse ACVR2A = mouse ACVR2A (mouse, UniProt P27038 20-135, limits assumed); assay: ELISA
# mouse ACVR2A, sequence (P27038 20-135 limits assumed): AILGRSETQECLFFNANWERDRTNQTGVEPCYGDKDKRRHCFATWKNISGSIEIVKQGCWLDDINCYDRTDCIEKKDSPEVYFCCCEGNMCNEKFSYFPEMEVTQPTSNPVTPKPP
# Summary of the method: as §1
# human ACVR2A = molecular target: T2, human ACVR2A (human, UniProt P27037 20-135, limits assumed); assay: ELISA
# T2 construct: also called activin receptor, type II A
# T2 sequence (P27037 20-135 limits assumed): as the sequence (P27038 20-135 limits assumed) above, with R20K, I73V counted along it
# Summary of the method: as §1
# Note: test concentration or dose not given here.
Binder,optical density [1],optical density (mouse ACVR2A),optical density (human ACVR2A)
"365_H04 (antibody, V domains shown, VH and VL only) VH: EVQLLESGGGLVQPGGSLRLSCAASGFTFSDYGMNWVRQAPGKGLEWVSGINYNSGYKSYADSVKGRFTISRDNSKNTLYLQMNSLRAEDTAVYYCARSATWHDTHLDYWGQGTLVTVSS VL: DIQMTQSPSSLSASVGDRVTITCRASQSILTYVNWYQQKPGKAPKLVIYAATSRASGVPSRFSGSGSGTDFTLTISSLQPEDFATYYCQQSYESPLTFGGGTKVEIK",3.5 OD,2.59 OD,2.47 OD
"365_H09 (antibody, V domains shown, VH and VL only) VH: EVQLLESGGGLVQPGGSLRLSCAASGFTFSSYGMNWVRQAPGKGLEWVSSINYNSGYKSYADSVKGRFTISRDNSKNTLYLQMNSLRAEDTAVYYCARSATWHDTHLDYWGQGTLVTVSS VL: not shown",3.53 OD,2.56 OD,2.38 OD
"367_D02 (antibody, V domains shown, VH and VL only) VH: EVQLLESGGGLVQPGGSLRLSCAASGFTFDDYSMNWVRQAPGKGLEWVSNINYNGGYTSYADSVKGRFTISRDNSKNTLYLQMNSLRAEDTAVYYCARSATWHDTHLDYWGQGTLVTVSS VL: DIQMTQSPSSLSASVGDRVTITCRASQSIVTYVNWYQQKPGKAPKLLIYAATSRASGVPSRFSGSGSGTDFTLTISSLQPEDFATYYCQQSYENPLTFGGGTKVEIK",3.46 OD,2.46 OD,2.46 OD
"367_A11 (antibody, V domains shown, VH and VL only) VH: EVQLLESGGGLVQPGGSLRLSCAASGFTFSSYGMHWVRQAPGKGLEWVSGINYNGGYTSYADSVKGRFTISRDNSKNTLYLQMNSLRAEDTAVYYCARSATWHDTHLDYWGQGTLVTVSS VL: DIQMTQSPSSLSASVGDRVTITCRASQSILSYVNWYQQKPGKAPKLVIYATTSLASGVPSRFSGSGSGTDFTLTISSLQPEDFATYYCQQSYNSPLTFGGGTKVEIK",3.61 OD,2.52 OD,2.34 OD
"366_C03 (antibody, V domains shown, VH and VL only) VH: EVQLLESGGGLVQPGGSLRLSCAASGFTFDSYGMNWVRQAPGKGLEWVSNINYNGGYTGYADSVKGRFTISRDNSKNTLYLQMNSLRAEDTAVYYCARSATWHDTHLDYWGQGTLVTVSS VL: DIQMTQSPSSLSASVGDRVTITCRASQSILSYLNWYQQKPGKAPKLVIYAATSRASGVPSRFSGSGSGTDFTLTISSLQPEDFATYYCQQSYSNPLTFGGGTKVEIK",3.55 OD,2.74 OD,2.41 OD
"366_F06 (antibody, V domains shown, VH and VL only) VH: EVQLLESGGGLVQPGGSLRLSCAASGFTFSDYGMNWVRQAPGKGLEWVSSINYNGGYTSYADSVKGRFTISRDNSKNTLYLQMNSLRAEDTAVYYCARSATWHDTHLDYWGQGTLVTVSS VL: DIQMTQSPSSLSASVGDRVTITCRASQSISTYLNWYQQKPGKAPKLLIYAATSLASGVPSRFSGSGSGTDFTLTISSLQPEDFATYYCQQSYSNPLTFGGGTKVEIK",3.44 OD,2.15 OD,1.87 OD
"366_E03 (antibody, V domains shown, VH and VL only) VH: EVQLLESGGGLVQPGGSLRLSCAASGFTFDSYGMNWVRQAPGKGLEWVSNINYNGGYKSYADSVKGRFTISRDNSKNTLYLQMNSLRAEDTAVYYCARSATWHDTHLDYWGQGTLVTVSS VL: DIQMTQSPSSLSASVGDRVTITCRASQSILTYLNWYQQKPGKAPKLVIYAATSRHSGVPSRFSGSGSGTDFTLTISSLQPEDFATYYCQQSYSNPLTFGGGTKVEIK",3.54 OD,2.72 OD,2.55 OD
"366_E02 (antibody, V domains shown, VH and VL only) VH: EVQLLESGGGLVQPGGSLRLSCAASGFTFSSYSMNWVRQAPGKGLEWVSGINYNSGYKGYADSVKGRFTISRDNSKNTLYLQMNSLRAEDTAVYYCARSATWHDTHLDYWGQGTLVTVSS VL: not shown",3.46 OD,2.58 OD,2.26 OD
"366_C07 (antibody, V domains shown, VH and VL only) VH: EVQLLESGGGLVQPGGSLRLSCAASGFTFSSYSMNWVRQAPGKGLEWVSNINYNGGYTSYADSVKGRFTISRDNSKNTLYLQMNSLRAEDTAVYYCARSATWHDTHLDYWGQGTLVTVSS VL: DIQMTQSPSSLSASVGDRVTITCRASQSILTYVNWYQQKPGKAPKLLIYAATSRASGVPSRFSGSGSGTDFTLTISSLQPEDFATYYCQQSYNSPLTFGGGTKVEIK",3.37 OD,3.06 OD,3.02 OD

# Next, values leading:
optical density [1],optical density (mouse ACVR2A),optical density (human ACVR2A),Binder
3.32 OD,3.01 OD,2.89 OD,"369_A06 (antibody, V domains shown, VH and VL only) VH: EVQLLESGGGLVQPGGSLRLSCAASGFTFSDYGMNWVRQAPGKGLEWVSNINYNGGYTGYADSVKGRFTISRDNSKNTLYLQMNSLRAEDTAVYYCARSATWHDTHLDYWGQGTLVTVSS VL: DIQMTQSPSSLSASVGDRVTITCRASQSILSYVNWYQQKPGKAPKLLIYAATSLASGVPSRFSGSGSGTDFTLTISSLQPEDFATYYCQQSYDLPLTFGGGTKVEIK"
3.11 OD,3.35 OD,3.44 OD,"369_D06 (antibody, V domains shown, VH and VL only) VH: EVQLLESGGGLVQPGGSLRLSCAASGFTFDSYSMNWVRQAPGKGLEWVSGINYNGGYTGYADSVKGRFTISRDNSKNTLYLQMNSLRAEDTAVYYCARSATWHDTHLDYWGQGTLVTVSS VL: DIQMTQSPSSLSASVGDRVTITCRASQSILTYLNWYQQKPGKAPKLLIYAATSRASGVPSRFSGSGSGTDFTLTISSLQPEDFATYYCQQSYETPLTFGGGTKVEIK"
2.8 OD,2.33 OD,2.32 OD,"369_C08 (antibody, V domains shown, VH and VL only) VH: EVQLLESGGGLVQPGGSLRLSCAASGFTFSDYGMNWVRQAPGKGLEWVSNINYNGGYTGYADSVKGRFTISRDNSKNTLYLQMNSLRAEDTAVYYCARSATWHDTHLDYWGQGTLVTVSS VL: DIQMTQSPSSLSASVGDRVTITCRASQSILTYLNWYQQKPGKAPKLVIYAATSLASGVPSRFSGSGSGTDFTLTISSLQPEDFATYYCQQSYENPLTFGGGTKVEIK"
3.32 OD,2.78 OD,2.69 OD,"367_G08 (antibody, V domains shown, VH and VL only) VH: EVQLLESGGGLVQPGGSLRLSCAASGFTFDSYGMNWVRQAPGKGLEWVSNINYNGGYKGYADSVKGRFTISRDNSKNTLYLQMNSLRAEDTAVYYCARSATWHDTHLDYWGQGTLVTVSS VL: DIQMTQSPSSLSASVGDRVTITCRASQSILSYLNWYQQKPGKAPKLLIYAATSRASGVPSRFSGSGSGTDFTLTISSLQPEDFATYYCQQSYENPLTFGGGTKVEIK"
3.6 OD,2.29 OD,2.38 OD,"367_F12 (antibody, V domains shown, VH and VL only) VH: EVQLLESGGGLVQPGGSLRLSCAASGFTFDDYSMNWVRQAPGKGLEWVSNINYNSGYKGYADSVKGRFTISRDNSKNTLYLQMNSLRAEDTAVYYCARSATWHDTHLDYWGQGTLVTVSS VL: not shown"
3.55 OD,3.66 OD,3.6 OD,"369_A01 (antibody, V domains shown, VH and VL only) VH: EVQLLESGGGLVQPGGSLRLSCAASGFTFDSYSMNWVRQAPGKGLEWVSGINYNSGYKGYADSVKGRFTISRDNSKNTLYLQMNSLRAEDTAVYYCARSATWHDTHLDYWGQGTLVTVSS VL: DIQMTQSPSSLSASVGDRVTITCRASQSILTYVNWYQQKPGKAPKLVIYAATSLASGVPSRFSGSGSGTDFTLTISSLQPEDFATYYCQQSYELPLTFGGGTKVEIK"
3.52 OD,3.3 OD,2.88 OD,"369_E04 (antibody, V domains shown, VH and VL only) VH: EVQLLESGGGLVQPGGSLRLSCAASGFTFSDYSMNWVRQAPGKGLEWVSGINYNSGYKSYADSVKGRFTISRDNSKNTLYLQMNSLRAEDTAVYYCARSATWHDTHLDYWGQGTLVTVSS VL: DIQMTQSPSSLSASVGDRVTITCRASQSILSYVNWYQQKPGKAPKLVIYAATSRASGVPSRFSGSGSGTDFTLTISSLQPEDFATYYCQQSYSLPLTFGGGTKVEIK"
3.26 OD,1.75 OD,1.73 OD,"368_B05 (antibody, V domains shown, VH and VL only) VH: EVQLLESGGGLVQPGGSLRLSCAASGFTFDSYSMNWVRQAPGKGLEWVSSINYNSGYTGYADSVKGRFTISRDNSKNTLYLQMNSLRAEDTAVYYCARSATWHDTHLDYWGQGTLVTVSS VL: not shown"
3.4 OD,1.85 OD,1.62 OD,"367_H04 (antibody, V domains shown, VH and VL only) VH: EVQLLESGGGLVQPGGSLRLSCAASGFTFSSYSMNWVRQAPGKGLEWVSSINYNGGYTSYADSVKGRFTISRDNSKNTLYLQMNSLRAEDTAVYYCARSATWHDTHLDYWGQGTLVTVSS VL: DIQMTQSPSSLSASVGDRVTITCRASQSILTYVNWYQQKPGKAPKLLIYAATSRHSGVPSRFSGSGSGTDFTLTISSLQPEDFATYYCQQSDNNPLTFGGGTKVEIK"
3.29 OD,1.75 OD,1.6 OD,"368_G08 (antibody, V domains shown, VH and VL only) VH: EVQLLESGGGLVQPGGSLRLSCAASGFTFDDYGMNWVRQAPGKGLEWVSSINYNSGYKSYADSVKGRFTISRDNSKNTLYLQMNSLRAEDTAVYYCARSATWHDTHLDYWGQGTLVTVSS VL: DIQMTQSPSSLSASVGDRVTITCRASQSIVSYVNWYQQKPGKAPKLLIYAATSRHSGVPSRFSGSGSGTDFTLTISSLQPEDFATYYCQQSYNNPLTFGGGTKVEIK"
3.16 OD,2.05 OD,1.79 OD,"368_G07 (antibody, V domains shown, VH and VL only) VH: EVQLLESGGGLVQPGGSLRLSCAASGFTFSSYSMHWVRQAPGKGLEWVSSINYNGGYTSYADSVKGRFTISRDNSKNTLYLQMNSLRAEDTAVYYCARSATWHDTHLDYWGQGTLVTVSS VL: DIQMTQSPSSLSASVGDRVTITCRASQSIVSYVNWYQQKPGKAPKLVIYAATSRASGVPSRFSGSGSGTDFTLTISSLQPEDFATYYCQQSYDTPLTFGGGTKVEIK"
